Data from article PMC9728202, “Molecular and Enzymatic Features of Homoserine Dehydrogenase from Bacillus subtilis” (Journal of Microbiology and Biotechnology, 2020).

Columns and labels:
[1] = target: the molecule itself; assay: SEC; Superdex-200 10/300 GL, 20 mM Tris-HCl pH 8.0, 0.1 mM TCEP, 400 mM NaCl, 0.5 mL/min; mass from a standard curve of standard proteins
purified protein [2] = substrate: N[C@@H](CCO)C(=O)O; assay: purified protein; format: biochemical, Bacillus subtilis; conditions: oxidation, 2 mM NADP+, pH 9.0, 400 mM NaCl, 25°C, apparent
purified protein [3] = substrate: NC(=O)c1ccc[n+]([C@@H]2O[C@H](COP(=O)(O)OP(=O)(O)OC[C@H]3O[C@@H](n4cnc5c(N)ncnc54)[C@H](OP(=O)(O)O)[C@@H]3O)[C@@H](O)[C@H]2O)c1; assay: purified protein; format: biochemical, Bacillus subtilis; conditions: oxidation, 100 mM L-homoserine, pH 9.0, 400 mM NaCl, 25°C, apparent, varied: cofactor

B1: Homoserine dehydrogenase from Bacillus subtilis (enzyme, Bacillus subtilis strain 168, UniProt P19582 1-433, looked up)
chain: MKAIRVGLLGLGTVGSGVVKIIQDHQDKLMHQVGCPVTIKKVLVKDLEKKREVDLPKEVLTTEVYDVIDDPDVDVVIEVIGGVEQTKQYLVDALRSKKHVVTANKDLMAVYGSELLAEAKENGCDIYFEASVAGGIPILRTLEEGLSSDRITKMMGIVNGTTNFILTKMIKEKSPYEEVLKEAQDLGFAEADPTSDVEGLDAARKMAILARLGFSMNVDLEDVKVKGISQITDEDISFSKRLGYTMKLIGIAQRDGSKIEVSVQPTLLPDHHPLSAVHNEFNAVYVYGEAVGETMFYGPGAGSMPTATSVVSDLVAVMKNMRLGVTGNSFVGPQYEKNMKSPSDIYAQQFLRIHVKDEVGSFSKITSVFSERGVSFEKILQLPIKGHDELAEIVIVTHHTSEADFSDILQNLNDLEVVQEVKSTYRVEGNGWS
notes: Homoserine dehydrogenase (gene hom) of Bacillus subtilis strain 168, 433 amino acid residues; Calculated mass of the monomer printed as 48.3 kDa; Surmised: cloning through XhoI into pET26b adds Leu-Glu before the His6 tag; no removal of the tag is told; also called BsHSD; HSD; source: E. coli Rosetta2 (DE3), purified (HisTrapFF, HiPrep 26/10 Desalting, Superdex-200)
[1]
  stoichiometry N: 4
Purified protein [2]
  Km: 35.08 ± 2.91 mM
  Vmax: 2.72 µmol/min/mg
  kcat: 1.07 ± 0.02 s⁻¹
  kcat/Km: 30 ± 10 M⁻¹ s⁻¹
Purified protein [3]
  Km: 0.39 ± 0.05 mM
  Vmax: 2.79 µmol/min/mg
  kcat: 1.1 ± 0.04 s⁻¹
  kcat/Km: 2860 ± 910 M⁻¹ s⁻¹
